Reference: paper PMC5102900, “ROS-Mediated Inhibition of S-nitrosoglutathione Reductase Contributes to the Activation of Anti-oxidative Mechanisms” (Frontiers in Plant Science, 2016)

B1: Arabidopsis thaliana S-nitrosoglutathione reductase (GSNOR), recombinant His6-GSNOR, reduced (enzyme, UniProt Q96533 1-379, looked up)
chain: MATQGQVITCKAAVAYEPNKPLVIEDVQVAPPQAGEVRIKILYTALCHTDAYTWSGKDPEGLFPCILGHEAAGIVESVGEGVTEVQAGDHVIPCYQAECRECKFCKSGKTNLCGKVRSATGVGIMMNDRKSRFSVNGKPIYHFMGTSTFSQYTVVHDVSVAKIDPTAPLDKVCLLGCGVPTGLGAVWNTAKVEPGSNVAIFGLGTVGLAVAEGAKTAGASRIIGIDIDSKKYETAKKFGVNEFVNPKDHDKPIQEVIVDLTDGGVDYSFECIGNVSVMRAALECCHKGWGTSVIVGVAASGQEISTRPFQLVTGRVWKGTAFGGFKSRTQVPWLVEKYMNKEIKVDEYITHNLTLGEINKAFDLLHEGTCLRCVLDTSK
notes: S-nitrosoglutathione reductase (GSNOR; glutathione-dependent formaldehyde dehydrogenase, class III alcohol dehydrogenase), Arabidopsis thaliana, At5g43940; Expressed from pDEST17 (Gateway); Run in buffer with 10 mM DTT; also called AtGSNOR; GSNO-reductase; source: E. coli BL21 DE3 pLysS, purified (Ni-NTA under reducing condition, followed by Äkta purification); not shown: His6, N-terminal, kept
B2: Arabidopsis thaliana S-nitrosoglutathione reductase (GSNOR), recombinant His6-GSNOR, oxidized with 1 mM H2O2 (enzyme, UniProt Q96533 1-379, looked up)
chain: B1 chain
modifications: oxidized by 1 mM H2O2 (oxidative modifications of cysteine residues; which residues at this concentration is not stated)
notes: S-nitrosoglutathione reductase (GSNOR; glutathione-dependent formaldehyde dehydrogenase, class III alcohol dehydrogenase), Arabidopsis thaliana, At5g43940; Same construct as m1, treated with H2O2 (200 ug GSNOR, 1 mM H2O2) and run without DTT; Mass spectrometry at 0.5 and 5 mM H2O2 found reversible and sulfinic or sulfonic modifications on most detected cysteines, among them Cys47 and Cys177; also …

Molecular target: the molecule itself
Assay: SEC-MALS; size exclusion chromatography (Superdex 200 10/300 GL, 4°C) with static light scattering (right-angle, Viscotek TDA 305, 30°C); 50 mM Tris-HCl pH 8.0, 200 mM NaCl, with 10 mM DTT (reduced sample) or without (sample oxidized by 1 mM H2O2); approximately 1.5 mg/ml, 100 ul applied

| Protein | stoichiometry N |
| --- | --- |
| B1 | 2 |
| B2 | 2 |
